Target: Toll-like receptor 4 (TLR4) on mouse bone marrow-derived dendritic cells (mouse (endogenous in bone marrow-derived DCs)) (UniProt Q9QUK6)
Assay: flow cytometry on cells; immature bone marrow-derived DCs of WT C57 BL/6 mice, pre-incubated with IgG1 isotype, TLR2 blocking or TLR4 blocking antibody on ice for 1 h, then stained with anti-CD11c APC, anti-TLR2-FITC, anti-TLR4-PE-Cy7 and rTs-Hsp70-PE on ice for 30 min; rTs-Hsp70-PE and TLR2-FITC or TLR4-PE-Cy7 double positive cells among CD11c+ cells

UniProt Q9QUK6, sequence (Q9QUK6 26-835): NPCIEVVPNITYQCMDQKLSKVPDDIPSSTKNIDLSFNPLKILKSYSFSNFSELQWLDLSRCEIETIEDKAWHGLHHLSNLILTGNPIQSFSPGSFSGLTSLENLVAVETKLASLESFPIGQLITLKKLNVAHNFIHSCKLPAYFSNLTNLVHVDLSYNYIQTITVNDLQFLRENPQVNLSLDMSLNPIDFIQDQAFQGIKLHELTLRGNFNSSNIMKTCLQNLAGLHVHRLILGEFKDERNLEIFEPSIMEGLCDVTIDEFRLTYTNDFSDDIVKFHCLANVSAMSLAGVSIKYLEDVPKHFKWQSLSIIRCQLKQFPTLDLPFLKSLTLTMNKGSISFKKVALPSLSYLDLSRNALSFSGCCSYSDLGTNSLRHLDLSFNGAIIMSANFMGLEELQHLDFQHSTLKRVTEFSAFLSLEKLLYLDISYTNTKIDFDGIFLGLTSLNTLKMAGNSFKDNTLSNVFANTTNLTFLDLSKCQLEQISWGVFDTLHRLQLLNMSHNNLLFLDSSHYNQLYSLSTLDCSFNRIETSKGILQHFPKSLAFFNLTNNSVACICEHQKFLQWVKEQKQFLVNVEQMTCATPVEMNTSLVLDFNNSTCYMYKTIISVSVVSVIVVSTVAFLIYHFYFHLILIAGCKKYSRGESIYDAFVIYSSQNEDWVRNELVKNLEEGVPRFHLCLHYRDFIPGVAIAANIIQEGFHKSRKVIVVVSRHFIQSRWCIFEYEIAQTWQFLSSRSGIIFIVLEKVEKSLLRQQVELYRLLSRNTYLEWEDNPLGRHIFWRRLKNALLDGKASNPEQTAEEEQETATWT

Recombinant Trichinella spiralis Heat shock protein 70 (natural protein)
percent of TLR4+ cells on CD11c+ DCs bound by rTs-Hsp70: 12.3%

From publication PMC5979045
